These results are taken from paper PMC6093788.

The assay addresses azide-labeled Aβ (14–23) peptide. Nature of the assay: AFM force spectroscopy.

Substance azide-labeled Aβ (14–23) peptide displayed a rupture force, dimer of neighbouring peptides (two-peak curves, peaks close) of 44 pN; a rupture force, dimer of peptides 1 and 3 (two-peak curves, peaks far) of 37 pN; a rupture force, monomer from the trimer (peak 1) of 48 pN; a rupture force, monomer from the trimer (peak 1), second experiment of 44 pN. Besides, the rupture force, remaining dimer to monomers (peak 2) came out at 53 pN; the rupture force, remaining dimer to monomers (peak 2), second experiment was found to be 50 pN; the stoichiometry N (as a rule, the number of molecules, sites or subunits per partner or assembly) was determined as 3.
